Experimental data published in patent US7732133B2, “Screening methods for biologically active ligands” (Chugai Seiyaku Kabushiki Kaisha, priority 2000, dated 2010).

B1: granulocyte-colony stimulating factor (protein, UniProt P09919 31-207, looked up)
Granulocyte …: TPLGPASSLPQSFLLKCLEQVRKIQGDGAALQEKLVSECATYKLCHPEELVLLGHSLGIPWAPLSSCPSQALQLAGCLSQLHSGLFLYQGLLQALEGISPELGPTLDTLQLDVADFATTIWQQMEELGMAPALQPTQGAMPAFASAFQRRAGGVLVASHLQSFLEVSYRVLRHLAQP
notes: human G-CSF prepared from recombinant CHO cells

Tests used:
[1] = molecular target: T1, chimeric TPO receptor (human TPO receptor extracellular domain / mouse G-CSF receptor) in Ba/F3 cell line TPG (Homo sapiens, UniProt P40238); test: Growth response of chimeric TPO receptor-expressing Ba/F3 cell line TPG (WST-8); format: cell-based; settings: 72 hours culture, WST-8 absorbance
T1 construct: from the 1st to the 491st amino acid residues; expressed in transfected cells; host or cells: mouse Ba/F3 cells, clone TPG#219 = TPG
T1 sequence (P40238 26-491): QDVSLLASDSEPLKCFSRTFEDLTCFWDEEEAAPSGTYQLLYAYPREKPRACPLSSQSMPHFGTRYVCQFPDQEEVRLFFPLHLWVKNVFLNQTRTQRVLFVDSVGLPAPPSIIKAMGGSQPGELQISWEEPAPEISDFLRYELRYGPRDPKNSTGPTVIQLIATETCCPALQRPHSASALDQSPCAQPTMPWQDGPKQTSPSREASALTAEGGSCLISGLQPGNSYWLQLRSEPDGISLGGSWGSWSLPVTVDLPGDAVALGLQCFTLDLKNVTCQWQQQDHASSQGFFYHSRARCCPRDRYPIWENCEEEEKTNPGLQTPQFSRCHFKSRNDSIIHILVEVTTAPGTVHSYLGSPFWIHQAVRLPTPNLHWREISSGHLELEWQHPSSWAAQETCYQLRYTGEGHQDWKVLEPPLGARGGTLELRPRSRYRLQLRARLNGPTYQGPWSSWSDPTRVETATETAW
Source text: A chimeric receptor cDNA was constructed by linking cDNA fragments encoding the extracellular domain (from the 1st to the 491st amino acid residues; Vigon, I. et al. (1992) Proc. Natl. Acad. Sci. USA 89, 5640-5644) of human TPO receptor, and the transmembrane and intracellular domains (from the 602nd to the 813th amino acid residues; Fukunaga, R. et al. (1990) Cell 61, 341-350) of mouse G-CSF receptor. The cDNA was inserted downstream of the EF1α promoter of the mammalian expression vector pCOS-G to construct chimeric receptor-expression vector TG/pCOS-G. TG/pCOS-G was linearized with Pvu I (Takara Shuzo), extracted with phenol and chloroform, and purified by ethanol precipitation.
The linearized expression gene vector was introduced into mouse Ba/F3 cells (purchased from RIKEN; Cell No.: RCB0805) using an electroporation apparatus (Gene Pulser: Bio Rad) The Ba/F3 cells were washed twice with Dulbecco's PBS (hereinafter referred to as PBS), and then were suspended in PBS to give a cell density of about 1×10^7 cells/mL. […]
The cells were washed twice with Media A, and were suspended in Media A to give a cell density of 5×10^4 cells/mL. […] The absorbance at a measurement wavelength of 450 nm and a control wavelength of 655 nm after the 2 hours incubation was measured using microplate reader (Model 3550, Bio Rad).

[2] = tested on: mixed culture of cell lines GFG, EPG, TPG and parental Ba/F3; test: Cytokine responses in mixed and individual cell cultures (Example 2); format: cell-based, mouse; settings: mixed culture of four cell lines (each 4×10^3 cells/well), similar in individual cultures, 72 hours, WST-8
Method: Mixed culture of the cell lines GFG, EPG, and TPG, which express human G-CSF, EPO, and TPO chimeric receptors, respectively, and their parental cell line Ba/F3 was conducted and their response to various cytokines was examined.
The cells were washed twice with RPMI1640 media containing 2% fetal bovine serum, and then were suspended in RPMI1640 containing 10% fetal bovine serum. The four cell lines were mixed by adjusting each of the cell lines to 4×10^4 cells/mL (16×10^4 cells/mL in total) for the mixed culture, and, for individual cultures, cells were prepared at 4×10^4 cells/mL. 100 μL each of the cells were independently seeded on a 96-well microtiter plate (flat bottom, Falcon). After adding 100 μL/well each of appropriately diluted cytokines, the cultures were cultured for 72 hours in a CO2 incubator (5% CO2 concentration). After the culture, 10 μL/well WST-8 reagent (Cell Count Reagent SF; Nacalai Tesque) was added, and pre-reaction absorbance at a measurement wavelength of 450 nm and a control wavelength of 655 nm was measured using a microplate reader (Model 3550, Bio Rad). The plate was incubated for two hours in a CO2 incubator (CO2 concentration, 5%), and post-reaction absorbance was measured as above. Data were graphed out taking the cytokine concentrations on the horizontal axis and the amount of changes in absorbance after 2-hour incubation on the vertical axis (FIGS. 18, 19, and 20).

[3] = molecular target: T2, chimeric G-CSF receptor (human G-CSF receptor extracellular domain / mouse G-CSF receptor) in Ba/F3 cell line GFG (UniProt P40223+Q99062); test: Growth response of chimeric G-CSF receptor-expressing Ba/F3 cell line GFG (WST-8); format: cell-based; settings: 70 hours culture, WST-8 absorbance
T2 construct: the extracellular domain (from the −23rd to the 604th amino acid residues); expressed in transfected cells; host or cells: mouse Ba/F3 cells, clone GFG#342 = GFG
T2 sequence (Q99062+P40223 with tags, fused parts or gaps): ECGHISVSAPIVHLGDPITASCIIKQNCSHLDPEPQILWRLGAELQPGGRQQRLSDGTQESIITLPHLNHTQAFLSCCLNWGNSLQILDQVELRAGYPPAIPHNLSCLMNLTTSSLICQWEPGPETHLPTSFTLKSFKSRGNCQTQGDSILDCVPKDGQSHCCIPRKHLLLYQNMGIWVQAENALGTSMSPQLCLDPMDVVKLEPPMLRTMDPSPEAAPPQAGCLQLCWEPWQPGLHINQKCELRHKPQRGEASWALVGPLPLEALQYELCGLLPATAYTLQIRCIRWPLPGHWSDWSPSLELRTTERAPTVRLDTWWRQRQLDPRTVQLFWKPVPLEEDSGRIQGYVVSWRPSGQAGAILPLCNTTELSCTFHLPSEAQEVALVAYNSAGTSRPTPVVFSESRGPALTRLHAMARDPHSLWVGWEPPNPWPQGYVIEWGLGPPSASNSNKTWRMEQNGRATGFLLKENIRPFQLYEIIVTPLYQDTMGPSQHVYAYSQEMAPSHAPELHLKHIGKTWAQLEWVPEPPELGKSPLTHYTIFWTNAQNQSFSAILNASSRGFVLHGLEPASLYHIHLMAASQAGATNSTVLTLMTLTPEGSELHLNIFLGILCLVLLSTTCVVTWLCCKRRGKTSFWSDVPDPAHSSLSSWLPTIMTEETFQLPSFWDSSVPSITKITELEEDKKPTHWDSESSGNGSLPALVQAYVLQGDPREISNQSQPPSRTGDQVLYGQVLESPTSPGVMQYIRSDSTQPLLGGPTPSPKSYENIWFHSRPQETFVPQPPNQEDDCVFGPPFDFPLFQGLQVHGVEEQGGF
Source text: A chimeric receptor cDNA was constructed by linking cDNA fragments encoding the extracellular domain (from the −23rd to the 604th amino acid residues; Fukunaga, R. et al. (1990) Proc. Natl. Acad. Sci. USA 87, 8702-8706) of human G-CSF receptor, and the transmembrane and intracellular domains (from the 602nd to the 813th amino acid residues; Fukunaga, R. et al. (1990) Cell 61, 341-350) of mouse G-CSF receptor. The cDNA was inserted downstream of the HEF1α promoter of the mammalian expression vector pCOS-G to construct chimeric receptor-expression vector GG/pCOS-G. GG/pCOS-G was linearized with Pvu I (Takara Shuzo), extracted with phenol and chloroform, and purified by ethanol precipitation.
The linearized expression gene vector was introduced into mouse Ba/F3 cells using an electroporation apparatus (Gene Pulser: Bio Rad). […]
The cells were washed twice with Media A, and were suspended in Media A to give a cell density of 5×10^4 cells/mL. […] After the culture, 10 μl/well WST-8 reagent (Cell Count Reagent SF; Nacalai Tesque) was added, and pre-reaction absorbance at a measurement wavelength of 450 nm and a control wavelength of 655 nm was measured using microplate reader (Model 3550, Bio Rad). The plate was incubated for two hours in a CO2 incubator (CO2 concentration, 5%), and post-reaction absorbance was measured as above.

[4] = Titer of human EPO and G-CSF prepared from recombinant CHO cells

Molecule	concentration at which an evident growth reaction was observed [1]	concentration where the response was observed to start ([2]; listed as hTPO)	concentration at which an evident growth reaction was observed [3]	titer [4]	concentration where the response was observed to start ([2]; listed as hG-CSF)
thrombopoietin [human TPO]	≥ 100 pg/mL	200 pg/mL			
B1			≥ 10 pg/mL	1.2×10^8 IU/mg	2 pg/mL
